From patent publication EP4567818A1 (Nanjing GenScript Biotech Co., Ltd., dated 2025)

Columns and labels:
[1] = target: T1, TNFRSF9 protein (also referred to as CD137 protein) (Homo sapiens (Human), UniProt Q07011 24-186); assay: ELISA on coated TNFRSF9, CHO-S expression supernatant diluted 100-fold
T1 construct: also called recombinant TNFRSF9 protein

[2] = target: T1, TNFRSF9 protein (also referred to as …); assay: indirect ELISA, purified antibody on coated recombinant TNFRSF9 (0.5 ug/ml)

B1: rabbit monoclonal antibody 4C2-WTH before humanization (antibody, human IgG1, V domains shown)
VH: QSVEESGGRLVTPGTPLTLTCTVSGFSLGTFPIGWVRQAPGSGLEWIGIFNTDGSAAYASWARGRFTVFKNSTTVDLKMTSPTTEDTATYFCARINADYSGWYFGIWGPGTLVTVSS
VL: EMTQTPASVEVAVGGTVTIKCQASQSIYSYLAWYQQKPGQPPKPLIYEASKTPSGVPSRFKGSGSGTEYTLTISGVQCEDAATYYCQKGYSVSNVAFGGGTEVVVKR
notes: As tested it is a chimera: the original rabbit variable regions with the human IgG1 constant region, expressed from pcDNA3.4 in CHO-S cells; also called wild-type antibody; anti-CD137 rabbit antibody
[1]
  OD450 (100-fold dilution): 3.33 OD450
[2]
  EC50: 3.8 ng/mL
